Patent US6555322B1, “α2-macroglobulin receptor as a receptor for CTGF” (FibroGen, Inc., priority 1999, dated 2003)

Columns and labels:
[1] = test system: CTGF receptor; test: Cell survey of CTGF cross-linked receptor complexes; format: binding
[2] = test system: MG63 cells; test: Internalization and degradation kinetics of 125I-CTGF with heparin or lactoferrin; format: cell-based, human
Protocol: Experiments were performed in which the internalization and degradation kinetics of CTGF were followed in the presence or absence of a known LRP ligand, lactoferrin. Kinetics were followed in the presence or absence of 3 μg/ml heparin or lactoferrin. ^125I-CTGF was bound to MG63 cells at 4° C. and free CTGF was removed by washing the cells. Fresh medium was placed on the cells, and the cells were transferred to 37° C. At each time point, the medium was removed and TCA precipitated. Degraded ^125I-CTGF was quantified by measuring the cpm in the non-precipitable fraction (see FIG. 17). In parallel experiments, ^125I-CTGF was bound to MG63 cells at 4° C. and free CTGF was removed by washing the cells. Fresh medium was placed on the cells, and they were transferred to 37° C. At each time point, the cell layer was removed by extensive trypsinization at 4° C. The cells were centrifuged and the cpm associated with the pellet, the internalized fraction, was determined (see FIG. 18).

[3] = test system: MG63 cells; test: Internalization and degradation of 125I-rhCTGF during binding, with additives; format: cell-based, human; conditions: two hour incubation at 37° C.
[4] = test system: LRP; test: Cross-linking and equilibrium binding of 125I-rhCTGF on MEF1, PEA 10 and PEA 13 cells; set-up: species or system murine
Protocol: Three cell lines useful for a complete genetic system for the study of LRP function were generated by Willnow and Herz (1994, J. Cell Sci. 103:719-726) and obtained from the American Type Culture Collection (ATCC). The wild type line, MEF1, are fibroblasts originating from murine embryos and are homozygous positive for LRP expression. Fibroblasts that carry one or two copies of the defective LRP allele from hybrid embryos (see Herz et al.(1992) Cell. 71:411-21) were cultured in Pseudomonas exotoxin A (PEA) and the resistant clones, PEA 10 and PEA 13, which are heterozygous and homozygous, respectively, for LRP deficiency. Resistance to Pseudomonas exotoxin A by PEA 10 and PEA 13 cell lines, as well as sensitivity by MEF1 cells, was confirmed by growth in 30 ng/ml Pseudomonas exotoxin A after receipt from ATCC.
The three cell lines were cultured and plated for affinity binding with radiolabeled CTGF, cross-linking and gel analysis. Specifically, cross-linking of ^125I-rhCTGF to monolayers of MEF1, PEA 10 and PEA 13 cells were carried out as follows: Cells plated in 6-well dishes were incubated at 4° C. with 0.2 nM ^125I-rhCTGF in the presence (+) or absence (−) of a 200 fold excess of unlabeled rhCTGF in a binding buffer of PBS, 0.2% BSA, 0.02% sodium azide. After a 3 hour period of labeling, cells were cross-linked with 0.5 mM BS^3 for 15 minutes at room temperature. […]

[5] = biological target: T1, LRP receptor (Mus musculus, UniProt Q91ZX7); test: Competitive binding and cross-linking of LRP ligands with 125I-CTGF on BMS-2 cells; set-up: species or system murine; conditions: 50 pM 125I-CTGF; CTGF 21.5 nM, BP5 201-218 50 μg/ml, LF 25 μg/ml, apo E 20 μg/ml, LpL 20 μg/ml
T1 construct: endogenous in cells; host or cells: BMS2 (BMS-2) murine bone marrow stromal cells
T1 sequence (Q91ZX7 20-4545): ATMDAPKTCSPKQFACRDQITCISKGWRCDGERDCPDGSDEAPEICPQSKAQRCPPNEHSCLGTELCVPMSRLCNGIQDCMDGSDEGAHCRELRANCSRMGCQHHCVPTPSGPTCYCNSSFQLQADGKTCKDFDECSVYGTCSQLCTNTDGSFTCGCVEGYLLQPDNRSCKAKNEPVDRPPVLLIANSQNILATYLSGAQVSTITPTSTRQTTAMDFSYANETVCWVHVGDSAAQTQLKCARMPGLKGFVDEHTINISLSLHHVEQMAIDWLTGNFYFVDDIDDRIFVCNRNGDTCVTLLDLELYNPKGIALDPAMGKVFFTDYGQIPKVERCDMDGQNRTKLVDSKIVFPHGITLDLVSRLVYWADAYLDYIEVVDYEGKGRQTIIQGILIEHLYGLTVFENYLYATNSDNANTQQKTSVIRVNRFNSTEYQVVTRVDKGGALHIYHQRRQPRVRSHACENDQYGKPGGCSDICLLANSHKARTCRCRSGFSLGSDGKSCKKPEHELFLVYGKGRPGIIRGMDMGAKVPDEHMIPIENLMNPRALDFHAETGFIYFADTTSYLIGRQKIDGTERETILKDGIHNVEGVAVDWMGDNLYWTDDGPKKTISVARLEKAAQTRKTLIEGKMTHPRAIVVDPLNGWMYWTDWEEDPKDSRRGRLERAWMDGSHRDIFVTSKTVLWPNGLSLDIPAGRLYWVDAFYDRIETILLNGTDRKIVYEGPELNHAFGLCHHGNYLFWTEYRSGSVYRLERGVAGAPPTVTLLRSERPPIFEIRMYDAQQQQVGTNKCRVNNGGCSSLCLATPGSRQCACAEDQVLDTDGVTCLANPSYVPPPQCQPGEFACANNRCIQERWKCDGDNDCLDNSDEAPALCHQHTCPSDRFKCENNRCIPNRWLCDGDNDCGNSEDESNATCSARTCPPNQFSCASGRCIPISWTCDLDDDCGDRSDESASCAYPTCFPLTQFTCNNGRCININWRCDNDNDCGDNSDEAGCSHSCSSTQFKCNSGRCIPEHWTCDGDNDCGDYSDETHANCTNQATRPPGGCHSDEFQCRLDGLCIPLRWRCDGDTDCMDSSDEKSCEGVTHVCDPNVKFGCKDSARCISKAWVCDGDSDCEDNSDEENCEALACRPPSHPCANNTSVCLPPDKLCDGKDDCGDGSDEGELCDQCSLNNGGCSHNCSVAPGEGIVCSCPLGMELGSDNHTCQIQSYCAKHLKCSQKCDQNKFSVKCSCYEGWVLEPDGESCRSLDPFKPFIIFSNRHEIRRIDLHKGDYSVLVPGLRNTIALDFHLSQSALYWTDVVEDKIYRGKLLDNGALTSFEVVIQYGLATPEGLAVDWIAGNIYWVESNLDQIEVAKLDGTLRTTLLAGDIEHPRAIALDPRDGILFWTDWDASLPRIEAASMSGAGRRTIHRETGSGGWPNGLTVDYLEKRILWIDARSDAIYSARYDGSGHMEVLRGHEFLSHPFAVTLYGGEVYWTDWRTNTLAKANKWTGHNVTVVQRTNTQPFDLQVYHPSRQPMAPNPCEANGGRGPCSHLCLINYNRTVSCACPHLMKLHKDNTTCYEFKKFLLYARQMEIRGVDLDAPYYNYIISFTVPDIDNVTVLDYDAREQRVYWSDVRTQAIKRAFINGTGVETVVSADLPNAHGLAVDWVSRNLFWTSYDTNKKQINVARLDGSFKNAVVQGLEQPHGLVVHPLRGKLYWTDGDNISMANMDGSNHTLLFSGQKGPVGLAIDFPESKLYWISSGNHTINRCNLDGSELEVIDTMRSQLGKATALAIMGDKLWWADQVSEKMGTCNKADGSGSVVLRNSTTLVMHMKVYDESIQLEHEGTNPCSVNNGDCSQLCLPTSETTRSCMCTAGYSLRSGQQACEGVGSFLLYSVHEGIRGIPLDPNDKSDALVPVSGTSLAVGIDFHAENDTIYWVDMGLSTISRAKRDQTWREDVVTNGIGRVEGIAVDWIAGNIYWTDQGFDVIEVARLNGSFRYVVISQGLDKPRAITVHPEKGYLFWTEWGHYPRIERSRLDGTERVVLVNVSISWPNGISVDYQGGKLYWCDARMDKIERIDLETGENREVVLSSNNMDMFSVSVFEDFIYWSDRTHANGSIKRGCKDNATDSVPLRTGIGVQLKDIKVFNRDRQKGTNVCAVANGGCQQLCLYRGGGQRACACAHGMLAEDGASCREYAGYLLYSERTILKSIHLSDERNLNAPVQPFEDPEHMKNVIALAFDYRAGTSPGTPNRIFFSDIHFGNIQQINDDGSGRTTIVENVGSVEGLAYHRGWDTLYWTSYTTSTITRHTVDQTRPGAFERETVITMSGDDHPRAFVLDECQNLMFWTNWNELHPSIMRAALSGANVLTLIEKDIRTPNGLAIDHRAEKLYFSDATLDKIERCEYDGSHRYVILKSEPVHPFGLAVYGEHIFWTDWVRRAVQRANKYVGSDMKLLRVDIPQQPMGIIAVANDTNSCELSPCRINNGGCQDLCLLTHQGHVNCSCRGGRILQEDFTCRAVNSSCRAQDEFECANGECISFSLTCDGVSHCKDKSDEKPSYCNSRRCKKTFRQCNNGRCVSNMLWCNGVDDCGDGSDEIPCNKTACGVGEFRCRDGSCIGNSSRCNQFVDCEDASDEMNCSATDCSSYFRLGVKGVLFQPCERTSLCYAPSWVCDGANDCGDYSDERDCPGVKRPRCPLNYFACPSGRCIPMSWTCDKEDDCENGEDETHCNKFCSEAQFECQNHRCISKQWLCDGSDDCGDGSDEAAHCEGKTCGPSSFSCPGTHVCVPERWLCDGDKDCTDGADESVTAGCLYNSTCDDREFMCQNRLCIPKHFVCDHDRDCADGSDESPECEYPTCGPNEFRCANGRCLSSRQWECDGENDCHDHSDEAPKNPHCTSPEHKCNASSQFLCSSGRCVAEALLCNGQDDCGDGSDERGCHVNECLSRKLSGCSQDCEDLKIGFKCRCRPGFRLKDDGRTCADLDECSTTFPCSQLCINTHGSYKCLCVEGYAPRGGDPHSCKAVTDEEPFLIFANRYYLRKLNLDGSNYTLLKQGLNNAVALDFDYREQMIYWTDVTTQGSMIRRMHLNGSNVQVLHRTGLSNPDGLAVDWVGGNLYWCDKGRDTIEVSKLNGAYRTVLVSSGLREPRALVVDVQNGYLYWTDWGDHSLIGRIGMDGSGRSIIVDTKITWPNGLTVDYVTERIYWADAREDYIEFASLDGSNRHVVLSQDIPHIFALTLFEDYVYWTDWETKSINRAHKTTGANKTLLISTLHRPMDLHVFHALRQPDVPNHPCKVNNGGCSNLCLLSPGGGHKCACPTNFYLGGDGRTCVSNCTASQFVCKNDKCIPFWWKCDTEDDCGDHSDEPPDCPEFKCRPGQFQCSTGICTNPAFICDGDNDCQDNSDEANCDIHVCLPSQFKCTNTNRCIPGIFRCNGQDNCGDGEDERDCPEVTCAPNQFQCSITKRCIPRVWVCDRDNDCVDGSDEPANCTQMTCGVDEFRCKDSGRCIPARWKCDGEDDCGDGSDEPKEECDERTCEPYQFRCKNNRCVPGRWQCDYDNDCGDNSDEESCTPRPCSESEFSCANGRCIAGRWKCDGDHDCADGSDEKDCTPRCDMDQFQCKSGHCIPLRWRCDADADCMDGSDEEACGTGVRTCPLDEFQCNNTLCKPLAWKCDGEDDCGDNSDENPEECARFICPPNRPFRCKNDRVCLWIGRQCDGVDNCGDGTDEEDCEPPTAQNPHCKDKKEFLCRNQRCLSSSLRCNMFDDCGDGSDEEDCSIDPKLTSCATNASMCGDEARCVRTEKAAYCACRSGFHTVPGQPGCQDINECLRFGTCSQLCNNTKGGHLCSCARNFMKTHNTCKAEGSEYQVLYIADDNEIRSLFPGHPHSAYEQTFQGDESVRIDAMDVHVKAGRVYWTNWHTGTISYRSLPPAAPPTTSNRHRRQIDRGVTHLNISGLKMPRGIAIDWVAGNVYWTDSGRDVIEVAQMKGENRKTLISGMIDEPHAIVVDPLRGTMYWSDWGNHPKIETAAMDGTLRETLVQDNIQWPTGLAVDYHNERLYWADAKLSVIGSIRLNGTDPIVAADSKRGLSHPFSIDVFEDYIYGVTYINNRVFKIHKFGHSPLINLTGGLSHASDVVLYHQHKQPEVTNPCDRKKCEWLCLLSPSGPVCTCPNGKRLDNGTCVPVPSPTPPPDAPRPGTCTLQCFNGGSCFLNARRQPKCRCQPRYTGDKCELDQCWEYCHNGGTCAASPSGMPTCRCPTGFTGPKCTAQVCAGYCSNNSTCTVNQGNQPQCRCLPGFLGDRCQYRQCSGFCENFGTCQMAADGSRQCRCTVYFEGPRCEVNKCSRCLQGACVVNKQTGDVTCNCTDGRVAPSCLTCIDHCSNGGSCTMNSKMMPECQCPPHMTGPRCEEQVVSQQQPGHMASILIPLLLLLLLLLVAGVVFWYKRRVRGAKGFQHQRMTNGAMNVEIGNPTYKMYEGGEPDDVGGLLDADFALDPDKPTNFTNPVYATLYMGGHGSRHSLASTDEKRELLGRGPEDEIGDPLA
Protocol: To examine whether ligands known to bind to LRP inhibit CTGF binding, BMS-2 cells were labeled with 50 pM ^125I-CTGF in the presence or absence of unlabeled ligand (CTGF: 21.5 nM; BP5^201-218: 50 μg/ml or […] (Campbell and Andress, 1997, Am. J. Physiol., 273:E1005-13); lactoferrin (LF): 25 μg/ml or 250 nM; apo E: 20 μg/ml or 574 nM; lipoprotein lipase (LpL): 20 μg/ml or 400 nM). The cells were cross-linked and the receptor complexes were solubilized, processed on SDS-PAGE and visualized by autoradiography.

[6] = biological target: T2, CTGF receptor on MG63 cells (Homo sapiens, UniProt Q07954); test: Specificity of CTGF binding in the presence of known growth factors, cross-linking; conditions: 200 pM 125I-CTGF, growth factor at 1 μg/ml
T2 construct: endogenous in cells; host or cells: MG63 human osteosarcoma cells
Protocol: The specificity of CTGF binding to the CTGF receptor was analyzed by performing an affinity binding experiment in the presence of a number of known growth factors. MG63 cells were labeled with 200 pM ^125I-CTGF in the presence of the indicated growth factor at 1 μg/ml. The cells were cross-linked with S-SMCC and the cell lysates were reduced prior to SDS-PAGE.

[7] = biological target: T3, high Mr CTGF binding protein on BMS-2 cells (Mus musculus, UniProt Q91ZX7); test: Binding analysis of 125I-CTGF competition with LRP ligands on BMS-2 cells; set-up: species or system murine; conditions: 0.1 nM 125I-CTGF
T3 construct: endogenous in cells; host or cells: BMS2 (BMS-2) murine bone marrow stromal cells
T3 sequence (Q91ZX7 20-4545): as above
Protocol: BMS-2 cells were incubated with 0.1 nM ^125I-CTGF in the presence of unlabeled CTGF, recombinant human apoE, low density lipoprotein purified from human plasma (LDL), or lipoprotein lipase purified from bovine milk (LpL).

[8] = test system: MG63 cells; test: Internalization and degradation time course of 125I-rhCTGF after TGF-β treatment; format: cell-based, human
Protocol: To examine whether LRP function was altered by TGF-β treatment, the following experiments were conducted. MG63 cells were plated at 2.5×10^4 cells/cm^2 in MEM with 10% FBS. The following day, the cells were rinsed with MEM containing 0.5% MEM and incubated in this low serum medium with or without 20 ng/ml of TGF-β2. At 24 or 48 hours the cells were rinsed twice with binding medium, then incubated at 4° C. for 3 hours with 0.2 nM ^125I-rhCTGF. After incubation, the cells were rinsed 4 times with binding buffer at 4° C., then fresh binding buffer pre-warmed to 37° C. was added and the cells continued incubation at 37° C. At time points of 0, 15, 30, 60, 120 and 180 min, the media were collected and processed by precipitation with 10% TCA. The cell layer was processed by trypsination of the cells. Pellets and supernatants were separated and counted for each point.

[9] = test system: MG63 cells; test: Protein synthesis in the presence of PEA as measure of LRP internalization activity; format: cell-based, human; conditions: 20 ng/ml TGF-β for 48 hours, 14C-amino acid pulse
Protocol: Pseudomonas exotoxin A (PEA) is a ligand for LRP, and following internalization is degraded in lysosomes. One of the degradation products contains PEA domain III, which promotes ADP-ribosylation of elongation factor-2, inhibiting protein synthesis. Protein synthesis in the presence of various concentrations of PEA was used to measure the internalization activity of LRP. To test whether TGF-β altered LRP activity for PEA internalization, MG63 cells were treated with 20 ng/ml TGF-β for 48 hours, then treated with various concentrations of PEA. After 2 hours, protein synthesis was monitored with an overnight pulse of ^14C-amino acids. The cell layers were extracted with 10% trichloroacetic acid and counted.

[10] = 20 ng/ml TGF-β2, 48 hour exposure

B1: connective tissue growth factor (protein)
chain: QNCSGPCRCPDEPAPRCPAGVSLVLDGCGCCRVCAKQLGELCTERDPCDPHKGLFCHFGSPANRKIGVCTAKDGAPCIFGGTVYRSGESFQSSCKYQCTCLDGAVGCMPLCSMDVRLPSPDCPFPRRVKLPGKCCEEWVCDEPKDQTVVGPALAAYRLEDTFGPDPTMIRANCLVQTTEWSACSKTCGMGISTRVTNDNASCRLEKQSRLCMVRPCEADLEENIKKGKKCIRTPKISKPIKFELSGCTSMKTYRAKFCGVCTDGRCCTPHRTTTLPVEFKCPDGEVMKKNMMFIKTCACHYNCPGDNDIFESLYYRKMYGDMA
notes: recombinant human CTGF produced in baculovirus-infected Hi 5 insect cells, also used radioiodinated
In the case of B1, the “cross-linking of CTGF to CHO and MLEC cells” value [1] is reported as “did not appear to cross-link”, the “time of internalization of CTGF” value ([2]; 37° C. after binding at 4° C.) is reported as at most 30 min and the “CTGF specifically internalized, control cells” value ([3]; 0.2 nM 125I-rhCTGF, no TGF-β) is reported as “approximately 260 fmoles CTGF/mg cell protein”. The “CTGF degraded, control cells” value ([3]; no TGF-β) was “About 1000 fmoles/mg cell protein”, the “cross-linked signal co-migrating with the complex, PEA 13 cells” value ([4]; 0.2 nM 125I-rhCTGF, BS3, overexposed autoradiograph) was “no signal” and the “CTGF binding on PEA 13 cells” value ([4]; PEA 13, homozygous LRP deficient) was “no binding was detected”. The “competing the binding to the LRP receptor” value (shortened to “competing the binding”) [5] was “most effective” and the “competition for CTGF binding to the cell surface” value [6] was “effectively competed”.

B2: lipoprotein lipase (protein)
chain: DRITGGKDFRDIESKFALRTPEDTAEDTCHLIPGVTESVANCHFNHSSKTFVVIHGWTVTGMYESWVPKLVAALYKREPDSNVIVVDWLSRAQQHYPVSAGYTKLVGQDVAKFMNWMADEFNYPLGNVHLLGYSLGAHAAGIAGSLTNKKVNRITGLDPAGPNFEYAEAPSRLSPDDADFVDVLHTFTRGSPGRSIGIQKPVGHVDIYPNGGTFQPGCNIGEALRVIAERGLGDVDQLVKCSHERSVHLFIDSLLNEENPSKAYRCNSKEAFEKGLCLSCRKNRCNNMGYEINKVRAKRSSKMYLKTRSQMPYKVFHYQVKIHFSGTESNTYTNQAFEISLYGTVAESENIPFTLPEVSTNKTYSFLLYTEVDIGELLMLKLKWISDSYFSWSNWWSSPGFDIGKIRVKAGETQKKVIFCSREKMSYLQKGKSPVIFVKCHDKSLNRKSG
notes: lipoprotein lipase purified from bovine milk, known LRP ligand
For B2, the “competition with 125I-CTGF” value [7] was “competed” and the “competing the binding” value [5] was “very effective in competing”.

B3: transforming growth factor beta (protein)
chain: ALDAAYCFRNVQDNCCLRPLYIDFKRDLGWKWIHEPKGYNANFCAGACPYLWSSDTQHSRVLSLYNTINPEASASPCCVSQDLEPLTILYYIGKTPKIEQLSNMIVKSCKCS
notes: growth factor, 20 ng/ml TGF-β2 used to treat MG63 cells
B3 was tested, and the “degradation of 125I-CTGF, control cells relative to TGF-β treated cells” value [8, 10] was “at least 3 fold”, the “internalization of CTGF in TGF-β treated cells” value [8, 10] was “more modest internalization” and the “internalization and degradation of CTGF by CTGF receptor (LRP), lower in TGF-β treated cells” value ([8]; TGF-β treated versus control cells) was “about 3 fold”. The “CTGF degraded, TGF-β treated cells” value ([3]; 48 hours post-TGF-β exposure) was 400 fmol, the “CTGF specifically internalized, TGF-β treated cells” value ([3]; 48 hours post-TGF-β exposure) was “about 150 fmoles” and the “sensitivity to PEA, TGF-β treated cells less sensitive than control cells” value [9] was “about 3 fold”.

B4: lactoferrin (protein, UniProt P02788 20-710, looked up)
Lactotransferrin: GRRRSVQWCAVSQPEATKCFQWQRNMRKVRGPPVSCIKRDSPIQCIQAIAENRADAVTLDGGFIYEAGLAPYKLRPVAAEVYGTERQPRTHYYAVAVVKKGGSFQLNELQGLKSCHTGLRRTAGWNVPIGTLRPFLNWTGPPEPIEAAVARFFSASCVPGADKGQFPNLCRLCAGTGENKCAFSSQEPYFSYSGAFKCLRDGAGDVAFIRESTVFEDLSDEAERDEYELLCPDNTRKPVDKFKDCHLARVPSHAVVARSVNGKEDAIWNLLRQAQEKFGKDKSPKFQLFGSPSGQKDLLFKDSAIGFSRVPPRIDSGLYLGSGYFTAIQNLRKSEEEVAARRARVVWCAVGEQELRKCNQWSGLSEGSVTCSSASTTEDCIALVLKGEADAMSLDGGYVYTAGKCGLVPVLAENYKSQQSSDPDPNCVDRPVEGYLAVAVVRRSDTSLTWNSVKGKKSCHTAVDRTAGWNIPMGLLFNQTGSCKFDEYFSQSCAPGSDPRSNLCALCIGDEQGENKCVPNSNERYYGYTGAFRCLAENAGDVAFVKDVTVLQNTDGNNNEAWAKDLKLADFALLCLDGKRKPVTEARSCHLAMAPNHAVVSRMDKVERLKQVLLHQQAKFGRNGSDCPDKFCLFQSETKNLLFNDNTECLARLHGKTTYEKYLGPQYVAGITNLKKCSTSPLLEACEFLRK
notes: known LRP ligand
B4 was tested, and the “rate of degradation of CTGF” value ([2]; 3 μg/ml heparin or lactoferrin) was “reduced the rate”, the “rate of internalization of CTGF” value ([2]; 3 μg/ml heparin or lactoferrin) was “reduced the rate” and the “competing the binding” value [5] was “very effective in competing”.
